Results taken from patent publication US20240026407A1, “MODIFICATION OF SAPONINS” (GLAXOSMITHKLINE BIOLOGICALS SA, priority 2020, published 2024).

Tests used:
Type in all cases: biochemical, Quillaja saponaria
[1] = Experiment 4-4: screening of glucosidases for deglycosylation of QS-18 in crude bark extract (1 in 20 dilution) to QS-21; conditions: CBE 1 in 20 dilution, pH 6, 25 degC, 18 hours; % conversion of Middle Peak by UV HPLC
Procedure, shortened: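 Clarified glucosidase lysates were incubated with pH 6 crude bark extract (1 in 20) in potassium phosphate buffer pH 6 for 18 h at 25 °C with shaking, then quenched with MeCN. UV HPLC with MS/MS-supported peak identity; activity is % conversion of the extract's Middle Peak (QS-18 family) toward the QS-21 peak.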

[2] = Experiment 4-1: screening of glucosidases for deglycosylation with purified QS-18 (0.04 mg/ml) at pH 7.5 and room temperature; conditions: pH 7.5, room temperature, 20 h, clarified E. coli lysate, QS-18 2150 to QS-21 1988 by LCMS/MS
Procedure, shortened: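 Deglycosylation measured by LC-MS/MS as % conversion after 20 h room-temperature incubation of QS-18 phenyl fraction (0.04 mg/ml final) with polymyxin B/lysozyme lysates, pH 7.5 phosphate, of E. coli BL21(DE3) expressing each enzyme; MeCN quench. Positives exceeded negative control by >3 S.D.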

[3] = Experiment 4-3: screening of glucosidases for deglycosylation with QS-18 in crude bark extract (1 in 2000 dilution) at pH 7 and 30 deg C; conditions: CBE 1 in 2000 dilution, pH 7, 30 degC, 1 h; % conversion of QS-18 by LCMS/MS
[4] = Experiment 4-2: screening of glucosidases for deglycosylation with purified QS-18 (1 mg/ml) at pH 6 and 30 deg C; conditions: pH 6, 30 degC, 18 hrs, clarified lysate, LCMS/MS
Procedure, shortened: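 Enzyme activity derived from LC-MS/MS analysis after MeCN quench. Substrate QS-18 (1 mg/ml final) was exposed overnight (18 h, 30 °C, pH 6 phosphate buffer) to clarified lysates containing candidate glucosidases.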

B1: 101 (protein, listed as Meira miltonrushii)
chain: MSAPIDPQALLAQLTLEEKIQLTAGADLWRTVAIERLKIPYIKLTDGPIGARGGGDFHDSTPSTLFPSPSCLGSTWDTKLAYEMGKQIALDGIEKQCHVILGPTINGQRDPRAGRFFESYSEDPTLMGFLASHWVQGVQSCGVGATMKHFVANEAEYDRRNNSSDVSIEALREVYLEPFRIIMADMQRKASAHDDPFKFQPACVMTAYNRVNGVSSSENDAMITDILRKEWGFDGLVMSDWFAMHANAFNATDLEMPGPTIFRTIEKTIDTIKKGDEEGKKMAKDLDRCVLKVLELVKKVHKLGYQKSVADEVEKSVPIEQVGPAIRKIGAEGAVLLKNDNDILPIIPKKDLKILCVGAPWIEAVQSGGGSANLTPQKVMQPLSTFKDALKNEKGGQDVTVNHHNGIGIHNFVKPLEQSIKLDFLTGRQPGKGEVVASTTGQKATLSTMLPKPKEVPWNDYWVRGSLDLEPVKKDCQLRFGLLGLGTITAYLTIDGDKSKQSIWNFDGETDLFESIVNPLRNWQENVITVKAGQKIQIEAHFVPRLVGKEHGDAKYGGFQIGMEEVDDEDALIAEAVQQAKEADLTVIMTAVGKDWESEGFDRPTIFLPRRQDDLVNQVTKACPGKTVILNLTGSVVEMPWRNDATGIVQCWYGGQEGAVSLSDILLGRGDAPASGRLAHVWPARIEDHPSGVDEAYFPGTHLPNDKEGPHTEYVEGRLVGYKYYNKNKNANQPAFHFGEGLGGYTTFATEGPVVKGSTKINKSSLPLSLTVKSTNKGKRSGKEVAQIYLRPHVPLSDAKDEPIQRLAGFAILRPAPGQSEEAEIQLYQETFSHWDEKSRSWQVKQGDYDLVLARSARYGEELGKATITIDQSWSWTGTGVN
Expt 4-4 % conv [1]: <3%
Expt 4-1 % conv [2]: 28.2%
Expt 4-3 % conv [3]: 1.8%
Expt 4-2 % conv [4]: 1.0%

B2: 5 (protein, listed as Actinobacteria bacterium)
chain: MSELVENLILRLTLEEKATLTSGTDMWNAHGIDRLGIPGLKVSDGPVGVRGERWVGTTSACTPCGTALGATWNMELIEQVGVVLGEEAKSKSVDIVLAPTVNLHRNPLAGRNFECFSEDPFLTGLAATAIINGIQSAGVGACVKHFVANDSEYQRHTISSQVSERVLRELYLLPFEMVIRDTDVVAVMSGYNRLNGTYCAEHDWLLNQILKQEWGFDGLVMSDWWGTMSSASAAGGLDLEMPGPAKYLGPQLAQMVADGTLDATALDEMARRILHVSERLGLLAHSSPATPSRAAERSEDLPTHQAILRSAAEQAVVLLTNRLIEGQTVLPLDVSSLRHVAVIGPSADTAAVLGGGSAAVNPHYAVSILQGLQEALPSHVKVTHEIGVHASHSAPPIDSRCLRSAVQPDKPGLDVEYFANREFAGTPACVEHAAQPRLVWMGSEAASGVATNNLSVRVSGTFIARSTGTHTFALVTGGTGGRVLLDGESILDNYTGQESGTAFFGLGSSEILAEVYLEQGEERGIIGEFTGYEGMDVAAFLIGHREPLAADGIERAAKAAAEAEVAIVVVGLDQDSETEGEDRKTISLPGEQDALLRAVIAANPRTVVLVNAGSVVDLAATEGAAAIAQTWYLGQETGNAVAAVLTGSVDPSGRLPTTFGKKVQDWSSHLNYPGEFGEVLYGEELFMGYRGFDQQQIEPAFCFGHGLSYTSFDWSGATLSTSSLSQTELLDGAQFSLSAEVTNTGDTSGYEVLQCYVQRDQSQSGRPEQELCGFVKVHLSPGQTATVNIPLNFRSCAVWDQPSRSWLVHPGEIKFRLSSSSRDTRSTAAFQVTT
Expt 4-4 % conv [1]: <3%
Expt 4-1 % conv [2]: 70.8%
Expt 4-3 % conv [3]: 1.4%
Expt 4-2 % conv [4]: 16.6%
